From the nanobody polyreactivity screen of Harvey et al. (2022) come the findings set out here.

This series can be described thus: yeast display, Sf9 membrane polyspecificity reagent, FACS + sequencing; frameworks hold sequencing errors. A digest of the protocol:
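Galactose induction of a Saccharomyces cerevisiae BJ5465 synthetic nanobody display library ran 36–48 hours. The cells were then stained for 1 hour at 4 °C with 10% biotinylated, detergent-solubilized Sf9 membrane reagent, pulled down on streptavidin microbeads and FACS-sorted into low and high (top ~1%) gates on expression and reagent-binding fluorescence. Labels for polyreactivity follow the gate of origin.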
“QVQLVESGGGLVQAGGSLRLSCAASGSTFRYYAMGWYRQAPGKERELVAAITYSGGRTYYADSVKGRFTISRDNAKNTVYLQMNSLKPEDTAVYYCAASFRAWSGNYWGQGTQVTVSA”: the “polyreactivity (PSR sort gate)” value is given as “high polyreactivity”.
Take “QVQLVESGGGLVQAGGSLRLSCAASGSTFRYYAMGWYRQAPGKERELVARITSRAGRTYYADSVKGRFTLSRDNAKNTVYLQMNSLKPEDTAVYYCNTRDFSGYVHALSLYDYWGQGTQVTVSS”: the “polyreactivity (PSR sort gate)” value was “high polyreactivity”.
The same measure for “QVQLVESGGGLVQAGGSLRLSCAASGSTFRYYAMGWYRQAPGKERELVASISTGGRTYYADSVKGRFTISRDNAKNTVYLQMNSLKPEDTAVYYCAAQGYWIYNTAYGYWGQGTQVTVSS”: “high polyreactivity”; for “QVQLVESGGGLVQAGGSLRLSCAASGSTFRYYAMGWYRQAPGKERELVASITSTGSTNYADSVKGRFTISRDNAKNTVYLQMNSLKPEDTAVYYCAAYRPYFGIAYGYWGQGTQVTVSS”: “high polyreactivity”; for “QVQLVESGGGLVQAGGSLRLSCAASGSTFRYYAMGWYRQAPGKERELVAVIRNSGGSTYYADSVKGRFTISRDNAKNTVYLQKNSLKREDTAVYYCAARLYTFHRDYWGQGTQVTVSS”: “low polyreactivity”.
Turning to “QVQLVESGGGLVQAGGSLRLSCAASGSTFRYYAMGWYRQAPGKERQLVAAISYRGGSTKYADSVKGRFTISRDNAKNTVYLQMNSLKPEDTAVYYCAADSYYDSKRYYWGQGTQVTVSS”, the “polyreactivity (PSR sort gate)” value is recorded as “high polyreactivity”.
For the sequence “QVQLVESGGGLVQAGGSLRLSCAASGSTFRYYAMGWYRQAPGKEWELVAVISTSGNTYYADSVKGRFTISRDNAKNTVYLQMNSLKPEDTAVYYCAARGVGGQISQEYDYWGQGTQVTVSS”, the “polyreactivity (PSR sort gate)” value is reported as “low polyreactivity”.
Turning to “QVQLVESGGGLVQAGGSLRLSCAASGSTFRYYSMGWYRQAPGKERELVAAITRSGTSTYYADSVKGRFTISRDTAKNTVYLQMNSLQPEDTAFYYCNAVTPYSREYDYWGQGTQVTVSS”, the “polyreactivity (PSR sort gate)” value is recorded as “high polyreactivity”.
On to “QVQLVESGGGLVQAGGSLRLSCAASGSTFRYYTMGWYRQAPGKEREFVAAITSSGTSTYYADSVKGRFTISRDNAKNTVYLQMNSLKPEDTAVYYCNKVGIYGSRSRYDSWGQGTQVTVSS”, for which the “polyreactivity (PSR sort gate)” value is given as “high polyreactivity”.
Take “QVQLVESGGGLVQAGGSLRLSCAASGSTFRYYTMGWYRQAPGKERELVARISRSGGSTYYADSVKGRFTISRDNAKNTVYLQMNSLKPEDTAVYYCAALYYVKPGQRYDYWGQGTQVTVSS”: the “polyreactivity (PSR sort gate)” value is recorded as “high polyreactivity”.
Consider “QVQLVESGGGLVQAGGSLRLSCAASGSTFRYYTMGWYRQAPGKERELVARISWSGGSTYYAYSVKGRFTISRDNAKYTVYLQMNSLKPEDTAVYYCNAVLFYFQTRDYWGQGTQVTVSS”, for which the “polyreactivity (PSR sort gate)” value was “high polyreactivity”.
The same measure for “QVQLVESGGGLVQAGGSLRLSCAASGSTFSANDMGWDRQAPGKEREFVAAITTSDDSTYYADSVKGRYTISRDNAKNTVYLQMNSLKPEDTAVYYCNAYSGYSFFGLCFFYKYDYWGQGTQVTVSS”: “low polyreactivity”; for “QVQLVESGGGLVQAGGSLRLSCAASGSTFSDNAMGGYRQAAGKERELVAAISWTGGSTYADSVKGRFTISRDNAKNTVYLQMNRLKPEDTAVYYCAAGGDFDGNYWGQGTQVTVSS”: “low polyreactivity”; for “QVQLVESGGGLVQAGGSLRLSCAASGSTFSDNAMGWYRQAPGKERELVAAINETGGSTYYADSVKGRFTISRDNAKNTVYLQMNSLKPEDTAVYYCNADIDPYGATYAIEYDYWGQGTQVTVSS”: “low polyreactivity”.
“QVQLVESGGGLVQAGGSLRLSCAASGSTFSDYAMGWYRPEPGQERELVATITSTGDTNYADSVKGRFTISRDNAKNTVYLQMNSLKPEDTAVYYCAAQHKKYGKRGLWNNFGYWGQGTQVSVSS”: the “polyreactivity (PSR sort gate)” value is “low polyreactivity”.
The same measure for “QVQLVESGGGLVQAGGSLRLSCAASGSTFSEYAMGWYRQAPGKEREFVATITVRGGSTYYADSVKGRFTISRDNAKNTVYLQMNSLKPEDTAVYYCAADGSGYYDWYYYWGQGTQVTVSS”: “low polyreactivity”; for “QVQLVESGGGLVQAGGSLRLSCAASGSTFSFYAMGWYRQAPGKERELVAAIRFSGTSTYADSVKGRFTISRDNAKNTVYLQMNSLKPEDTAVYYCAARRAVFYSQRYYRYDYWGQGTQVTVSS”: “high polyreactivity”; for “QVQLVESGGGLVQAGGSLRLSCAASGSTFSGNAMGWYRQAPGKERELVAAISWSGDTTYYADSVKGRFTISRDNAKNTVYLQMNSLKPEDTAVYYCAVRYYWRRMNYWGQGTQVTVSS”: “high polyreactivity”.
Consider “QVQLVESGGGLVQAGGSLRLSCAASGSTFSGNAMGWYRQAPGKERELVAAITSSGGSTYYADSVKGRFTISRDNAKNTVYLQMNSLKPEDTAVYYCAAKSRRTRRSYYWGQGTQVTVSS”, for which the “polyreactivity (PSR sort gate)” value is on record as “high polyreactivity”.
As to “QVQLVESGGGLVQAGGSLRLSCAASGSTFSGYAKGWYRQAPGTEWELVAAINWNGGRTYYADSVKGRFTISRDNAKNTVYLQMNSLKPEDTAVYYCNAVTRAAYWWTARSTDYDYWGQGTQVTVSS”, the “polyreactivity (PSR sort gate)” value is reported as “high polyreactivity”.
Regarding “QVQLVESGGGLVQAGGSLRLSCAASGSTFSGYAMGWYRQAPGKERELVAAITSDGSTYYADSVKGRFTISRDNAKNTVYLQMNSLKPEDTAVYYCAVGIPYRGRQGYYGYYTYDYWGQGTQVTVSS”, the “polyreactivity (PSR sort gate)” value is listed as “high polyreactivity”.
As for “QVQLVESGGGLVQAGGSLRLSCAASGSTFSGYAMGWYRQAPGKERELVATISGGGSTYYADSVKGRFTISRDNAKNTVYLQMNSLKPEDTAVFYCNAQGYGIFTSSLDYWGQGTQVTVSS”, the “polyreactivity (PSR sort gate)” value is recorded as “low polyreactivity”.
In the case of “QVQLVESGGGLVQAGGSLRLSCAASGSTFSHNAMGWYRQAPGKERELVAAISSDGTTYYADSVKGRFTISRDNAKNTVYLQMNSLKPEDTAVYYCNKTRWTQRTSFDYWGQGTQVTVSS”, the “polyreactivity (PSR sort gate)” value is listed as “low polyreactivity”.
For “QVQLVESGGGLVQAGGSLRLSCAASGSTFSHYAMGWYRQAPGKERELVATITGTGVRTYYADSVKGRFTISRDNAKNTVYLQMNSLKPEDTAVYYCAVPPSKRGAQAQPWMDYWGQGTQVTVSS”, the “polyreactivity (PSR sort gate)” value is reported as “low polyreactivity”.
Consider “QVQLVESGGGLVQAGGSLRLSCAASGSTFSINAMGWYRQAPGKERELVAAITWRGVRTYYADSVKGRFTISRDNAKNTVYLQMNSLKPEDPAVYYCAAVPATSYPRRYVYAYYYWGQGTQVTVSS”, for which the “polyreactivity (PSR sort gate)” value was “high polyreactivity”.
Next, “QVQLVESGGGLVQAGGSLRLSCAASGSTFSIYAMGWYRKAPGKERELVAAISTDGGSTNYADSVKGRFTISRDNAKNTVYLQMNILKPEDTAVYYCAADTYWYLSPYDYWGQGTQVTVSS”: “low polyreactivity”; “QVQLVESGGGLVQAGGSLRLSCAASGSTFSIYTMGWYRQAPGKERELVAAINTGDGDTYYADSVKGRFTISRDNAKNTFYLQMNSLKPEDTAVYYCAAVYSQLSNLYYYWGQGTQVTVSS”: “low polyreactivity”; “QVQLVESGGGLVQAGGSLRLSCAASGSTFSLYALGWYRQAPGKERELVAAITRGGNTYYADSVKGRFTISRDNAKNTVYLQMNSLKPEDTAVYYCNAVFPKTRSYAYGYWGQGTQVTVSS”: “high polyreactivity”.
Take “QVQLVESGGGLVQAGGSLRLSCAASGSTFSLYAMGWYRQAPGKERELVAAISWSDGSTYYADSVKGRFTISRDNAKNTVYLQMNSLKPEDTAVYYCAAESTVRPYEHSGDYWGQGTQVTVSS”: the “polyreactivity (PSR sort gate)” value is reported as “low polyreactivity”.
On to “QVQLVESGGGLVQAGGSLRLSCAASGSTFSLYAMGWYRQAPGKERELVARISYTDGSTYYADSVKGRFTISRDNAKNTVYLQMNSLKPEDTAVYYCAAEAWYSYTLEDYWGQGTQVTVSS”, for which the “polyreactivity (PSR sort gate)” value is given as “low polyreactivity”.
Consider “QVQLVESGGGLVQAGGSLRLSCAASGSTFSLYVMGWYRQAPGKEREFVATINWRTVSTYYADSVKGRFTISRDNAKKTVYLQMNSLIPEDTAVYYCNAVSYPPDGTYDYWGQGTQVTVSS”, for which the “polyreactivity (PSR sort gate)” value is “low polyreactivity”.
As for “QVQLVESGGGLVQAGGSLRLSCAASGSTFSNYAMGWYRQAPGKERELVASISNGGSTNYADSVKGRFTISRDNAKNTVYLQMNSLKPEDTAVYYCNAESKAKYDYWGQGTQVTVSS”, the “polyreactivity (PSR sort gate)” value was “low polyreactivity”.
Take “QVQLVESGGGLVQAGGSLRLSCAASGSTFSPYAMGWYRQAPGKERELVAAINYSSGSTYYADSVKGRFTISRDNAKNTVYFQMNSLKTEDTAVYYCAKGWYAGYPYDYWGQGTQVTVSS”: the “polyreactivity (PSR sort gate)” value is “low polyreactivity”.
Consider “QVQLVESGGGLVQAGGSLRLSCAASGSTFSPYAMGWYRQAPGKERELVANITISGGSTYYADSVKGRFTISRDNAKNTVYIQMNSLKPEDTAVYYCNADSLIRWLFTVVIFDYWGQGTLVTVSS”, for which the “polyreactivity (PSR sort gate)” value is “low polyreactivity”.
Consider “QVQLVESGGGLVQAGGSLRLSCAASGSTFSPYAMGWYRQAPGKERELVANITISGGSTYYADSVKGRFTISRDNAKNTVYLQMNSLKPEDTAVYFCNADSLIRWLFTVVIFDYWGQGTQVTVSS”, for which the “polyreactivity (PSR sort gate)” value was “low polyreactivity”.
In the case of “QVQLVESGGGLVQAGGSLRLSCAASGSTFSQNALGWYRQAPGKDRELVAAITSGGITYYADSVKGRFTMSRDNAKNTVYLQMNSLKPEDTAVYYCAADFWPSGRGVAFDYWGQGTQVTVSS”, the “polyreactivity (PSR sort gate)” value was “low polyreactivity”.
Next, “QVQLVESGGGLVQAGGSLRLSCAASGSTFSRNAMGWYRQAPGKERELVAAISWRGGRTYYADSVKGRFTISRDNAKNTVYLQMNSLKPEDTAVYYCAAEHKYRYDYWGQGTQVTVSS”: “low polyreactivity”; “QVQLVESGGGLVQAGGSLRLSCAASGSTFSRNAMGWYRQAPGKERELVAAITLRGTNTYYADSVKGRFTISRDNAKNTVYLQMNSLKPEDTAVYYCAALRRGSGRYDMDYWGQGTQVTVSS”: “high polyreactivity”.
The same measure for “QVQLVESGGGLVQAGGSLRLSCAASGSTFSRNASGWYRQAPGKERELVAAISRRGDTTYYADSVKGRFTISRDNAKNTVYLQMNSLKPEDTAVYYCNRLTIGSSSYDYWGQGTQVTVSS”: “high polyreactivity”; for “QVQLVESGGGLVQAGGSLRLSCAASGSTFSRYAMGWYRQAPGKEMELVAAITGSGGNTYYADSVKGRFTISRDNAKNTVYLQMNSLKPEDTAVYYCAAEDYVGWYNFEYWGQGTQVTVSS”: “high polyreactivity”.
On to “QVQLVESGGGLVQAGGSLRLSCAASGSTFSRYAMGWYRQAPGKEREFGAAISRRAGGTYYADSVKGRFTISRDNAKNTVYLQMNSLKPEDTAVYYCAKVLPRDYIGRATYDYWGQGTQVTVSS”, for which the “polyreactivity (PSR sort gate)” value was “high polyreactivity”.
